In article PMC12307654, “Time-dependent catalytic activity in aging condensates” (Nature Communications, 2025):

Substrate: C=C(O[C@H]1C=C[C@H](C(=O)CCC(=O)O)[C@@H](C(=O)O)[C@@H]1O)C(=O)O
Test: purified protein
Assay type: biochemical, Escherichia coli
Settings: free enzyme without scaffold, 20 mM Tris, 150 mM NaCl, 0.5 mM AEBSF, 0.1 mM DTT, 0.1% Triton X-100, 10% glycerol, pH 7.4, room temperature

B1: MenH-RIDD (Escherichia coli K-12) (protein)
chain: MILHAQAKHGKPGLPWLVFLHGFSGDCHEWQEVGEAFADYSRLYVDLPGHGGSAAISVDGFDDVTDLLRKTLVSYNILDFWLVGYSLGGRVAMMAACQGLAGLCGVIVEGGHPGLQNAEQRAERQRSDRQWVQRFLTEPLTAVFADWYQQPVFASLNDDQRRELVALRSNNNGATLAAMLEATSLAVQPDLRANLSARTFAFYYLCGERDSKFRALAAELAADCHVIPRAGHNAHRENPAGVIASLAQILRF
notes: full-length MenH fused to the RIDD docking peptide tag; gene from laboratory stock; free enzyme without FIB1-GFP-RIAD scaffold
Protein B1 has a Km of 12.75 ± 1.68 µM and a kcat of 1.536 ± 0.0972 s⁻¹.
